Source: PMC2133002 (The Journal of Cell Biology, 1998)
Each block holds one molecule with its values, some of them ahead of it.

Assays:
Assay in all cases: co-IP
[1] = target: rbet1 (rat (endogenous in rat liver)) (UniProt Q62896)
[2] = target: membrin (rat (endogenous in rat liver)) (UniProt O35165)
membrin = target: T1, membrin (rat (endogenous in rat liver), UniProt O35165 1-212)
T1 sequence: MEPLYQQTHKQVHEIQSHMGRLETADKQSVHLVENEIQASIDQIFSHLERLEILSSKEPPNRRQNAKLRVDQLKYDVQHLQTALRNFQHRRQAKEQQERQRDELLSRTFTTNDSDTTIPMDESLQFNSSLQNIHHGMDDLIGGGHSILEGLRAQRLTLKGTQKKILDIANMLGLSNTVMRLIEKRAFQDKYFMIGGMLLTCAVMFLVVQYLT

[3] = target: T2, Golgi SNARE of 28 kD (GOS-28) (rat (endogenous in rat liver), UniProt Q62931 1-250)
T2 sequence: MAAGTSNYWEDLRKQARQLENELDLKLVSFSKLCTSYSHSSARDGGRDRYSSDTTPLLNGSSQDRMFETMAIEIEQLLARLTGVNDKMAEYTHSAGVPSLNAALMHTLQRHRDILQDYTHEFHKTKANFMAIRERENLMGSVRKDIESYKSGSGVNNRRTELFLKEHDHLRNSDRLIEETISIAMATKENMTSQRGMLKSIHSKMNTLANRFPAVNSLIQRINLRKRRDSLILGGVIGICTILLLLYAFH

rbet1 = target: T3, rbet1 (rat (endogenous in rat liver), UniProt Q62896 1-118)
T3 sequence: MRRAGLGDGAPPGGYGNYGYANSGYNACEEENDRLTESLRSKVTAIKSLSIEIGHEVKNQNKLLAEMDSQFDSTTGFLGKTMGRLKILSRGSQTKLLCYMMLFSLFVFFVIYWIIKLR

efficiency of coprecipitation (arbitrary units) [1]: 247
Molecule: rsec22b (from UniProt Q4KM74 1-215) (natural protein)

efficiency of coprecipitation (arbitrary units) [1]: 308
Molecule: membrin (from UniProt O35165 1-212) (natural protein)

Further lines, the molecule ahead of its results:

Molecule: rbet1 (from UniProt Q62896 1-118) (natural protein)
efficiency of coprecipitation (arbitrary units) [2]: 115

Molecule: syntaxin 5, 31-kD form (degradation product of the 41-kD isoform) (domain or fragment)
efficiency of coprecipitation (arbitrary units) [1]: 139

B1: syntaxin 5, 41-kD isoform (natural protein)
chain: MIPRKRYGSKNTDQGVYLGLSKTQVLSPATAINSSSDIAPLPTPVALVPSPPDTMSCRDRTQEFLSACKSLQSRQNGIQTNKPALHATRQCSEFTLMARRIGKDLSNTFAKLEKLTILAKRKSLFDDKAVEIEELTYIIKQDINSLNKQIAQLQDFVRAKGSQSGRHLQTHSNTIVVSLQSKLASMSNDFKSVLEVRTENLKQQRNRREQFSRAPVSALPLAPNNLGGGPIVLGGESRASRDVAIDMMDPRTSQQLQLIDEQDSYIQSRADTMQNIESTIVELGSIFQQLAHMVKEQEETIQRIDENVLGAQLDVEAAHSEILKYFQSVTSNRWLMVKIFLILIVFFIIFVVFLA
efficiency of coprecipitation (membrin): 25 arbitrary units
efficiency of coprecipitation [3]: 30 arbitrary units
efficiency of coprecipitation (rbet1): 129 arbitrary units

B2: syntaxin 5, 34-kD isoform (natural protein)
chain: MSCRDRTQEFLSACKSLQSRQNGIQTNKPALHATRQCSEFTLMARRIGKDLSNTFAKLEKLTILAKRKSLFDDKAVEIEELTYIIKQDINSLNKQIAQLQDFVRAKGSQSGRHLQTHSNTIVVSLQSKLASMSNDFKSVLEVRTENLKQQRNRREQFSRAPVSALPLAPNNLGGGPIVLGGESRASRDVAIDMMDPRTSQQLQLIDEQDSYIQSRADTMQNIESTIVELGSIFQQLAHMVKEQEETIQRIDENVLGAQLDVEAAHSEILKYFQSVTSNRWLMVKIFLILIVFFIIFVVFLA
efficiency of coprecipitation (membrin): 37 arbitrary units
efficiency of coprecipitation [3]: 134 arbitrary units
efficiency of coprecipitation (rbet1): 128 arbitrary units
